Test [1] has as its target HLA-A*02:01. Description: IEDB peptide-MHC binding, purified MHC/direct/fluorescence; filed as Kd, often an IC50 or EC50 that approximates it; ≥ and ≤ were set here for values at or beyond the usual limits of such assays.
Test [2] concerns the target HLA-A*69:01. Described as above.
Test [3] addresses HLA-A*02:03. The experiment in a line: IEDB peptide-MHC binding, purified MHC/competitive/radioactivity; filed as Kd, often an IC50 or EC50 that approximates it; ≥ and ≤ were set here for values at or beyond the usual limits of such assays.
Test [4] addresses HLA-A*02:02. The test is described as above.
Test [5] addresses HLA-A*02:06. The description is as above.
Test [6] addresses HLA-A*02:01. The experiment in a line: IEDB peptide-MHC binding, purified MHC/competitive/fluorescence; ≥ and ≤ were set here for values at or beyond the usual limits of such assays.
Test [7] has as its target HLA-A*03:01. Description: IEDB peptide-MHC binding, purified MHC/direct/fluorescence; filed as Kd, often an IC50 or EC50 that approximates it; ≥ and ≤ were set here for values at or beyond the usual limits of such assays. The note with it: source organism: Escherichia coli.
Test [8] deals with HLA-A*02:01. Description: IEDB peptide-MHC binding, purified MHC/competitive/fluorescence; filed as Kd, often an IC50 or EC50 that approximates it; ≥ and ≤ were set here for values at or beyond the usual limits of such assays. The note with it: source organism: Bacillus cereus G9241.
The target in test [9] is HLA-B*58:01. Description: IEDB peptide-MHC binding, purified MHC/direct/fluorescence; filed as Kd, often an IC50 or EC50 that approximates it; ≥ and ≤ were set here for values at or beyond the usual limits of such assays. The note with it: source organism: Mammarenavirus machupoense.
[10] abbreviates: source organism: Shigella boydii.
[11] abbreviates: source organism: Vaccinia virus WR.
The mark [12] stands for this setting: source organism: Zaire ebolavirus.
Setting [13] is: source organism: Francisella tularensis subsp. holarctica LVS.
Where [14] appears, read: source organism: Lymphocytic choriomeningitis virus (strain Armstrong).
The mark [15] stands for this setting: source organism: Giardia lamblia ATCC 50803.

Where only a bound is given, the exact number is not on record here.

For the sequence KLPRWIFFA, the Kd in [1] (setting [10]) was 1.5 nM; in test [2] (setting [10]), 951 nM.
As to KLPTWLGAAI, the Kd in test [3] (setting [11]) came out at 123 nM; in test [4] (setting [11]), 103 nM; in [5] (setting [11]), 295 nM.
For YLGIFKNNDV, the results for the Kd in [3] (setting [11]), in [4] (setting [11]) and in test [5] (setting [11]) were 16.9 nM, 14.8 nM and 285 nM, respectively.
NQDGLICGL showed an IC50 in [6] (setting [12]) of 28.4 µM.
As to YLPEVISTIA, the Kd in test [3] (setting [11]) stood at 0.955 nM; in [4] (setting [11]), 10.9 nM; in [5] (setting [11]), 17.7 nM.
FTLDADLGI: the values for the Kd in test [1] (setting [13]) and in test [2] (setting [13]) were 8.2 nM and 2.2 nM, respectively.
Take ITRLEVIGLT: the Kd in test [3] (setting [11]) came out at 219 nM; in test [4] (setting [11]) it was 2210 nM; in test [5] (setting [11]), 967 nM.
As for RVLYDEFVTI, the figures for the dissociation constant (Kd) in [3] (setting [11]), in test [4] (setting [11]) and in test [5] (setting [11]) were 178 nM, 153 nM and 6.62 nM, respectively.
For the sequence LSNGMLRFA, the IC50 in [6] (source organism: Vaccinia virus) was 5.56 µM. This lies in the single-digit micromolar range.
NASQHPQQV: the Kd in [2] (source organism: Salmonella enterica subsp. enterica serovar Typhimurium) stood at 571 nM.
LLDEPLSPDT: the Kd in test [3] (setting [11]) was determined as 10100 nM; in test [4] (setting [11]) it was 8510 nM; in test [5] (setting [11]) it was 7840 nM.
For KLTKDRKML the same measures were at least 36400 nM, at least 24500 nM and at least 77100 nM.
In the case of LMDCIIFES, the Kd in test [3] (setting [14]) worked out at 825 nM; in test [4] (setting [14]) it was 30.1 nM; in test [5] (setting [14]) it was 300 nM.
As for TITTFIPISA, the dissociation constant Kd in [3] (setting [11]) was determined as 176 nM; in [4] (setting [11]) it was 4060 nM; in [5] (setting [11]) it was 4840 nM.
For RMPTDMLKL the same measures were 106 nM, 950 nM and 678 nM.
Turning to IPLGVIHNS, in test [6] (setting [12]), the IC50 was at least 185 µM.
Regarding FTHTTAFFNT, the Kd in [3] (setting [11]) was determined as 10200 nM; in test [4] (setting [11]), 17200 nM; in [5] (setting [11]) it was 51 nM.
For LVSKHWELT the same measures were 14900 nM, 12200 nM and at least 77100 nM.
Consider YFLESNFFI, for which the Kd in test [1] (setting [15]) came to 0.6 nM; in [2] (setting [15]), 2.2 nM.
As to GLGSFVARK, the Kd in [7] was 209 nM.
Sequence TVVPLMAFL gave a Kd in test [8] of 48.5 nM.
Consider RLKVFLPNP, for which the IC50 in test [6] (source organism: Variola virus) was found to be 9.43 µM.
Regarding IAIFNNRNLA, the Kd was 1480 nM in [3] (setting [11]), 3360 nM in test [4] (setting [11]) and 890 nM in [5] (setting [11]).
In the case of MNAPDDLVL, the IC50 in test [6] (setting [12]) is at least 162 µM.
Sequence GLPPGTPAV gave a Kd in test [1] (source organism: Mycobacterium tuberculosis) of 27.8 nM.
Regarding LLTDTIESA, the Kd stood at 10.5 nM in test [3] (setting [11]), 16.6 nM in test [4] (setting [11]) and 5.88 nM in [5] (setting [11]).
For NIKISLNEI the same measures were 31 nM, 1670 nM and 1500 nM.
As for YGLVSKFMS, the IC50 in test [6] (setting [11]) came out at 25.6 µM.
In the case of VTSPLTGNNT, the figures for the Kd in test [3] (setting [11]), in test [4] (setting [11]) and in test [5] (setting [11]) were 2500 nM, 1450 nM and 5130 nM, respectively.
For FTDCRTIDAI the same measures were 12800 nM, 9440 nM and 751 nM.
On to RSLKAFFSW, for which the equilibrium dissociation constant (Kd) in [9] turned out to be 29.4 nM.
Take HIGHHYIWI: the Kd in test [3] (setting [11]) is 899 nM; in [4] (setting [11]) it was 2550 nM; in test [5] (setting [11]), at least 25300 nM.
For SVKNLILNFL the same measures were 163 nM, 1040 nM and 551 nM.

The values are drawn from the Immune Epitope Database (IEDB).
